# Literature values, collected in article PMC11634773 (Nature, 2024).
# Conditions: humans, basal insulin
substance,measurement,value
insulin glargine,c.v. for traditional needle-based subcutaneous pen injection,33%
